# Experimental data reported in US11753455B2, “Compounds for treatment of obesity” (Novo Nordisk A/S, priority 2018, dated 2023).
# System: brain regions of mice (C57BL/6J)
# Test: In vivo imaging of fluorescently labelled GLP-1 Fab fusion proteins in brain (LSFM)
# Details: single i.v. dose 120 nmol/kg, 6 hours
# Experimental: The two fusion proteins include one and the same GLP-1 receptor agonist compound but differ in the Fab part. […] The study is an acute study in mice.
# The mice were anesthetised with isoflurane 6 hours (“6H”) following administration of compound and euthanised by transcardiac perfusion with 10 ml heparinised (10 U/ml) saline followed by 10 ml 10% neutral buffered formalin (NBF). Brains were removed and immersed into 10% NBF and stored at 4° C. O/N until further processed.
# The brains were dehydrated and saturated in dibenzyl ether (DBE) to minimise scattering of light during scanning by removal of water, and by matching of the refractive index. Brain tissue was dehydrated at room temperature in graded tetrahydrofuran (THF) diluted in demineralised H2O (w/v) 50/80/96/99%/2×100% 6-12 hours for each step. The brains were then cleared at room temperature in 3×DBE for 6-12 hours each step.
# Brain samples were scanned using an UltraMicroscope II LSFM system (Lavision Biotec, Bielefeld, Germany) in 10.32 μm isotropic resolution. Data acquisition was performed using a 620/60 nm excitation filter and 680/30 nm emission filter for imaging autofluorescence, and a 710/75 nm excitation filter and 780/40 nm emission filter for imaging specific signals.
# Images are single plane images of a z plane (2D). Spectral unmixing was performed to minimise the contribution of tissue auto-fluorescence in the images of the specific signals presented. The unmixing was carried out in Imaris (Release 7.6.5, Zurich, Switzerland) on imported tiff-files. The estimated auto-fluorescence contribution in the specific channel was calculated and removed based on ratios of voxel intensities between selected voxels in the unspecific recording and the corresponding voxels in the specific channel. A ratio was computed for 40 sets of voxels selected based on the histogram of the unspecific recording. The unmixing algorithm was written in Matlab (Release 2012b, Math Works, Natick, Massachusetts, United States) and applied as a XT-plugin in Imaris.
# Images were registered to a common reference atlas space for visualisation and quantification using the Elastix software library version 4 (Klein, Stefan, et al. “Elastix: a toolbox for intensity-based medical image registration.” IEEE transactions on medical imaging 29.1 (2010): 196-205). A source image IS(x) was registered to the target atlas image IT(x) by finding a coordinate transformation T(x) that made IS(T(x)) spatially aligned with IT(x). […] Quantification was performed by summation of the unmixed intensity value of all voxels within the individual brain regions, indicating the total fluorescence signal from the compounds in these regions. […] The total signal thus indicates the total fluorescence signal from the compounds in these regions. […]
# [1] = active vs inactive TfR compound
molecule,measurement,setting,value
"Example 8: VivoTag750 fluorescence labelled GLP-1 anti TfR-Fab fusion protein of Example 6 (conjugate, VivoTag750 fluorescent label; GLP-1 anti TfR-fab fusion protein; DISULFID (70)..(135); DISULFID (181)..(241); DISULFID (261)..(481); DISULFID (283)..(357); DISULFID (407)..(461)) HGEGTFTSDVSSYLEEQAAREFIAWLVKGRPGGGSGGGSGGGSGGGSDIQMTQSPASLSASLEEIVTITCQASQDIGNWLAWYQQKPGKSPQLLIYGATSLADGVPSRFSGSRSGTQFSLKISRVQVEDIGIYYCLQAYNTPWTFGGGTKLELKRADAAPTVSIFPPSSEQLTSGGASVVCFLNNFYPKDINVKWKIDGSERQNGVLNSWTDQDSKDSTYSMSSTLTLTKDEYERHNSYTCEATHKTSTSPIVKSFNRNECEVQLVESGGGLVQPGNSLTLSCVASGFTFSNYGMHWIRQAPKKGLEWIAMIYYDSSKMNYADTVKGRFTISRDNSKNTLYLEMNSLRSEDTAMYYCAVPTSHYVVDVWGQGVSVTVSSAKTTPPSVYPLAPGSAAQTNSMVTLGCLVKGYFPEPVTVTWNSGSLSSGVHTFPAVLQSDLYTLSSSVTVPSSTWPSETVTCNVAHPASSTKVDKKIVPRDCGHHHHHHHHHH",total fluorescence signal in brain regions that do not express the GLP-1R (FIG. 16D),[1],slightly higher
same,total fluorescence signal in circumventricular organs expressing the GLP-1R but devoid of a BBB (FIG. 16B),[1],slightly higher
same,total fluorescence signal in brain regions expressing the GLP-1R (FIG. 16A),compared to GLP-1-Inactive TfR,higher
same,total fluorescence signal in brain structures expressing the GLP-1R which are protected by the BBB (FIG. 16C),compared to GLP-1-Inactive TfR,highly increased
